Test results from patent publication US20190030139.

Experiments:
USP10 S76 peptide = tested on: T1, USP10 S76 peptide
T1 sequence: TLPRTPSYSISST

Substance	initial rate of phosphorylation (in vitro kinase assay, 32P incorporation) (USP10 S76 peptide) [pmol/min/reaction mix]	maximal stoichiometry of phosphorylation (USP10 S76 peptide) [mol/mol]	initial rate of phosphorylation (in vitro kinase assay, 32P incorporation) (SAMS peptide (Abcam)) [pmol/min/reaction mix]	maximal stoichiometry of phosphorylation (SAMS peptide (Abcam)) [mol/mol]	in vitro deubiquitination assay, immunoblot (FIG. 4C) (Ubiquitinated AMPKα1)	in vitro deubiquitination assay, immunoblot (FIG. 3H) (Ubiquitinated AMPKα2)
Purified AMPK (Upstate Biotechnology)	155±36	0.46±0.04	95±18	0.35±0.02		
USP10CA (catalytically inactive CA mutant, recombinant)					the catalytically inactive CA mutant could not	the catalytically inactive CA mutant could not
